Where two headings read alike, the source gives them in different places.
Experiments:
Assay type in all cases: biochemical
LPEAG = assay: In vitro sortase kinetics HPLC assay, LPEAG substrate
Protocol: (§1) See below for details on sortase expression and purification, and on the synthesis of Abz-LPETGK(Dnp)-CONH2 (SEQ ID NO: 19). […] Reactions were initiated with the addition of enzyme and incubated at 22.5° C. for 3 to 20 minutes before quenching with 0.5 volumes of 1 M HCl. Five to ten nmol of peptide from the quenched reactions were injected onto an analytical reverse-phase Eclipse XDB-C18 HPLC column (4.6×150 mm, 5 μm, Agilent Technologies) and chromatographed using a gradient of 10 to 65% acetonitrile with 0.1% TFA in 0.1% aqueous TFA over 13 minutes. Retention times under these conditions for the Abz-LPETGK(Dnp)-CONH2 (SEQ ID NO: 19) substrate, the released GKDnp peptide, and the Abz-LPETGGG-COOH (SEQ ID NO: 20) product were 12.8, 10.4, and 9.1 min, respectively. To calculate the percent conversion, the ratio of the integrated areas of the Abz-LPETGGG-COOH (SEQ ID NO: 20) and Abz-LPETGK(Dnp)-CONH2 (SEQ ID NO: 19) peptide Abs220 peaks was compared to a standard curve generated by mixing the product and starting peptide in known ratios. To determine […] and Km, reaction rates were fit to the Michaelis-Menten equation using OriginPro 7.0 software. All kinetics values reported represent the average of at least three measurements. Percent conversion was also calculated by using the ratio of the integrated areas of the GK(Dnp)-CONH2 and Abz-LPETGK(Dnp)-CONH2 peptide Abs355 peaks were compared directly (Example 5). To determine kcat and Km, LPETG, reaction rates were fit to the Michaelis-Menten equation using Microsoft Excel using the Solver add-in. To determine Km,GGG and KH, reaction rates were fit to the modified Michaelis-Menten, for which KH is as defined when KH<<Km,GGG.
(§2) Assays to determine eSrtA, eSrtA(2A-9) and eSrtA(4S-9) specificity were performed by preparing 10 μM stocks of Abz-LXEXGK(Dnp) (SEQ ID NO: 75) peptides in 300 mM Tris pH 7.5, 150 mM NaCl, 5 mM CaCl2, 5% v/v DMSO, and 100 mM Gly-Gly-Gly-COOH (GGG). Reactions were performed by adding eSrtA(2A-9) to a final concentration of 450 nM, eSrtA(4S-9) to a final concentration of 115 nM or eSrtA to a final concentration of 47.5 nM and a final volume of 100 μL, then incubating at 22.5° C. for 15 minutes. Reactions were quenched by the addition of 0.2 volumes of 5 M HCl, then were injected onto an analytical reverse-phase Eclipse XDB-C18 HPLC column (4.6×150 mm, 5 μm, Agilent Technologies) and chromatographed using a gradient of 10 to 65% acetonitrile with 0.1% TFA in 0.1% aqueous TFA over 13 minutes. Retention times under these conditions for the Abz-LPETGK(Dnp)-CONH2 (SEQ ID NO: 19) substrate, the released GKDnp peptide, and the Abz-LPETGGG-COOH (SEQ ID NO: 20) product were 12.8, 10.4, and 9.1 min, respectively, while the remaining Abz-LXEXGK(Dnp)-CONH2 (SEQ ID NO: 74) substrates varied in retention time between 9 and 13 minutes. To calculate the percent conversion, the ratio of the integrated areas of the GK(Dnp)-CONH2 and Abz-LPETGK(Dnp)-CONH2 (SEQ ID NO: 19) peptide Abs355 peaks were compared directly. Subsequent determination of kcat/Km and KH were performed as described for in vitro SrtA characterization.
(§3) The original pentamutant comprising the mutations P94R, D160N, D165A, K190E, and K196T is referred to as eSrtA. Sortase variants herein were evolved using eSrtA as the parent enzyme in the evolution experiments. In some cases, an evolved sortase comprises a N160K mutation instead of a D160N or a T196S mutation instead of a K196T. Parameters are reported with their standard deviations as determined from three technical replicates. kcat, Km and kcat/Km parameters were determined at 100 mM GGG concentration, while Km,GGG and KH parameters were determined at 1 mM concentration of the listed substrate.

LPECG = assay: In vitro sortase kinetics HPLC assay, LPECG substrate
Protocol: as §1, §2, §3

[1] = test system: GGG-functionalized amphiphilic diblock polypeptide; assay: GGG-diblock functionalization; conditions: Alexa Fluor 488-LAETG or 647-LPESG, 1 hour
Protocol: Amphiphilic diblock polypeptide (Diblock) was co-incubated with Alexa Fluor® 488-LAETG (SEQ ID NO: 5), Alexa Fluor® 647-LPESG (SEQ ID NO: 3), eSrtA(2A-9), and/or eSrtA(4S-9). The reactions were analyzed by denaturing gel electrophoresis and visualized using either Coomassie stain (top), 488 fluorescence (bottom, blue), or 647 fluorescence (bottom, red). Magenta denotes the overlap of blue and red fluorescence signals.
GGG-functionalized recombinant amphiphilic diblock polypeptide (Diblock), GGG-Diblock, was used as a substrate to test the orthogonality of the two evolved sortases in solution. GGG-Diblock based on elastin-mimetic polypeptide sequences was prepared as previously described (Kim et al. Self-Assembly of Thermally Responsive Amphiphilic Diblock Copolypeptides into Spherical Micellar Nanoparticles. Angewandte Chemie International Edition 49, 4257-4260, doi:10.1002/anie.201001356 (2010)) with slight changes in sequence by genetically incorporating an N-terminal triglycine motif. A complete amine acid sequence is GGG-VPGEG-[(VPGVG)(VPGEG)(VPGVG)(VPGEG)(VPGVG)]10-CCCCGG-[(IPGVG)2VPGYG(IPGVG)2]15-VPGYG (SEQ ID NO: 75). In a 0.6 mL Eppendorf tube, GGG-functionalized Diblock (10 μM) was mixed with fluorophore-peptide (0.1 μM), evolved sortase (15 μM) and CaCl2 (100 mM), then reacted for 1 hour at room temperature. […]

[2] = Sub LPEAG, 100 mM GGG, read-out: Km
[3] = Sub LPECG, 100 mM GGG, read-out: Km

Chain of GGG-functionalized amphiphilic diblock polypeptide (as listed by the source): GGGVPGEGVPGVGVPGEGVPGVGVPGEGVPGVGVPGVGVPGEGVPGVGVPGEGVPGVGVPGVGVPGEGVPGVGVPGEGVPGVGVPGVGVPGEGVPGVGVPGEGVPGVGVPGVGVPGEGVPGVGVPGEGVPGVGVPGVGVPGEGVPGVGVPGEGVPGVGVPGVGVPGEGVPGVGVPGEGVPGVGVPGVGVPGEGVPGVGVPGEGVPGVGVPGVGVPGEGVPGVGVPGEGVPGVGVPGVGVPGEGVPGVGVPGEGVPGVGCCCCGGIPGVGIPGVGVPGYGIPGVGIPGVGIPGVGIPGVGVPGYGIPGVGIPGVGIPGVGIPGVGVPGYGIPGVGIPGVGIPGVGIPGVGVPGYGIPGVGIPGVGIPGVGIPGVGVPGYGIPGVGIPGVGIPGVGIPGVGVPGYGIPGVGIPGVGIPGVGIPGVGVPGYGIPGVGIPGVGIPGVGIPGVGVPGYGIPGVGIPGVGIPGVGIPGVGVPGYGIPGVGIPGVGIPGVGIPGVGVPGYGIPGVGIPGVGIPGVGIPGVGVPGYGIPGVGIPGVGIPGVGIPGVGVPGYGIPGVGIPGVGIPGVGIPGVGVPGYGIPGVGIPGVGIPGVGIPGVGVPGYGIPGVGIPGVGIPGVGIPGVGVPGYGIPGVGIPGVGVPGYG

B1: eSrtA (protein)
chain: QAKPQIPKDKSKVAGYIEIPDADIKEPVYPGPATREQLNRGVSFAEENESLDDQNISIAGHTFIDRPNYQFTNLKAAKKGSMVYFKVGNETRKYKMTSIRNVKPTAVEVLDEQKGKDKQLTLITCDDYNEETGVWETRKIFVATEVK
- KH (LPEAG; 1 mM LPEAG): 599 ± 41 µM
- Km (LPEAG; 1 mM LPEAG, read-out: Km,GGG): 48.4 ± 3.1 mM
- Kcat (Hz) (LPEAG; Sub LPEAG, 100 mM GGG): 0.74 ± 0.04 Hz
- Km (LPEAG; [2]): 0.0834 ± 0.0006 mM
- activity for LPECG compared with LPETG (LPECG): exceeds that of LPETG
- KH (LPECG; 1 mM LPECG): 620 ± 150 µM
- Km (LPECG; 1 mM LPECG, read-out: Km,GGG): 57 ± 33 mM
- Kcat (Hz) (LPECG; Sub LPECG, 100 mM GGG): 3.5 ± 0.3 Hz
- Km (LPECG; [3]): 0.0725 ± 0.0056 mM

B2: eSrtA(4S-9): P94R, N98D, S102C, A104V, A118T, F122A, K134R, F144L, D160N, D165A, I182V, E189F, K190E, K196T (protein)
chain: QAKPQIPKDKSKVAGYIEIPDADIKEPVYPGPATREQLDRGVCFVEENESLDDQNISITGHTAIDRPNYQFTNLRAAKKGSMVYLKVGNETRKYKMTSIRNVKPTAVEVLDEQKGKDKQLTLVTCDDYNFETGVWETRKIFVATEVK
- KH (LPEAG; 1 mM LPEAG): 193 ± 30 µM
- Km (LPEAG; 1 mM LPEAG, read-out: Km,GGG): 41 ± 4 mM
- Kcat (Hz) (LPEAG; Sub LPEAG, 100 mM GGG): 1.90 ± 0.01 Hz
- Km (LPEAG; [2]): 0.154 ± 0.003 mM
- activity for LPECG compared with LPETG (LPECG): exceeds that of LPETG
- KH (LPECG; 1 mM LPECG): 120 ± 23 µM
- Km (LPECG; 1 mM LPECG, read-out: Km,GGG): 55 ± 1.4 mM
- Kcat (Hz) (LPECG; Sub LPECG, 100 mM GGG): 5.0 ± 0.6 Hz
- Km (LPECG; [3]): 0.069 ± 0.013 mM
- peptide-diblock conjugation [1]: no detectable off-target substrate conjugation

B3: eSrtA(2A-9): P94R, S102C, A104H, E105D, K138P, K152I, N160K, K162H, T164N, D165A, K173E, I182V, K190E, T196S (protein)
chain: QAKPQIPKDKSKVAGYIEIPDADIKEPVYPGPATREQLNRGVCFHDENESLDDQNISIAGHTFIDRPNYQFTNLKAAKPGSMVYFKVGNETRIYKMTSIRKVHPNAVEVLDEQEGKDKQLTLVTCDDYNEETGVWESRKIFVATEVK
- peptide-diblock conjugation [1]: no detectable off-target substrate conjugation

— patent US10202593B2, “Evolved sortases and uses thereof” (President and Fellows of Harvard College, priority 2013, dated 2019)
